Assay results reported in patent publication US20190119357A1, “MESSENGER RIBONUCLEIC ACIDS FOR THE PRODUCTION OF INTRACELLULAR BINDING POLYPEPTIDES AND METHODS OF USE THEREOF” (ModernaTX, Inc., priority 2015, published 2019).

Tests used:
[1] = Pharmacokinetics of intracellular expression of SQT scaffold polypeptide in mouse livers in vivo; parameters: species or system mice; details: mouse liver
Experimental: Studies were performed to assess the pharmacokinetics of intracellular expression of the SQT scaffold polypeptide in mouse livers in vivo following multiple dosing. Mice were dosed on day 0 and on day 7 with an LNP carrying an mmRNA construct encoding the SQT scaffold polypeptide. The construct lacked any presenting polypeptides at any of the insertion sites (i.e., the construct was a “dummy” construct of only the scaffold), and was labeled with a FLAG epitope tag. Following dosing with the LNPs, liver protein was recovered and analyzed for expression of the SQT scaffold using the FLAG epitope tag for detection and quantification by quantitative Western blot analysis (LICOR/Western). Protein amounts were normalized to vinculin.

cells = assay: Half-life determination by bio-orthogonal non-canonical amino acid tagging (BONCAT); format: cell-based; details: SQT protein scaffold in cells, post-transfection, one-phase decay fit
Experimental: The half-life of the SQT protein scaffold in cells was determined by Bio-orthogonal non-canonical amino acid tagging (BONCAT). […] AHA contains a reactive group (a terminal azide), which can be conjugated to a fluorophore via click chemistry. Newly synthesized proteins in the cells were separated by molecular weight (SDS-PAGE) at various time points post-transfection and visualized via in-gel fluorescence. The fluorescent signal was quantified using Li-cor's Image Studio (Version 3.1). One-phase decay nonlinear regression fit was by GraphPad Prism (Version 6).

B1: SQT scaffold: Stefin A Quadruple Mutant-Tracy scaffold polypeptide (SEQ ID NO: 70) expressed from a dummy mmRNA construct (protein)
chain: MIPRGLSEAKPATPEIQEIVDKVKPQLEEKTNETYGKLEAVQYKTQVLASTNYYIKVRAGDNKYMHLKVFNGPPGQNADRVLTGYQVDKNKDDELTGF
modifications: Synthetic SteA SQT scaffold amino acid sequence
Question: For B1, which “time to peak protein levels” value ([1]; first dose (day 0) of LNP) is on record?
Answer: approximately 20 hours

Question: And the “time at which protein levels were essentially finished” value ([1]; post-injection of first dose)?
Answer: approximately 160 hours

Question: And the “time to peak protein levels” value ([1]; second dose (day 7), post-injection)?
Answer: approximately 20 hours

Question: And the half-life (cells)?
Answer: 33.31 h
